Data published in ChEMBL document CHEMBL1144764, “A molecular modeling study of the interaction of 2'-fluoro-substituted analogues of dUMP/FdUMP with thymidylate synthase” (Bioorg Med Chem Lett, 2008).

Tests used:
[1] = substrate: O=c1ccn([C@@H]2O[C@H](COP(=O)(O)O)[C@@H](O)[C@H]2F)c(=O)[nH]1; details: Homo sapiens
Description: (§1) Activity at human recombinant thymidylate synthase

[2] = substrate: O=c1ccn([C@H]2C[C@H](O)[C@@H](COP(=O)(O)O)O2)c(=O)[nH]1; details: Homo sapiens
Description: as §1

B1: Thymidylate synthase (Homo sapiens), P04818 (protein)
chain: MPVAGSELPRRPLPPAAQERDAEPRPPHGELQYLGQIQHILRCGVRKDDRTGTGTLSVFGMQARYSLRDEFPLLTTKRVFWKGVLEELLWFIKGSTNAKELSSKGVKIWDANGSRDFLDSLGFSTREEGDLGPVYGFQWRHFGAEYRDMESDYSGQGVDQLQRVIDTIKTNPDDRRIIMCAWNPRDLPLMALPPCHALCQFYVVNSELSCQLYQRSGDMGLGVPFNIASYALLTYMIAHITGLKPGDFIHTLGDAHIYLNHIEPLKIQLQREPRPFPKLRILRKVEKIDDFKAEDFQIEGYNPHPTIKMEMAV
[1]
  Km: 12.2 µM
[2]
  Km: 5.25 µM
